Results: patent US12281147

Key:
[1] = target: wild-type human IL-21R (human) (UniProt Q9HBE5); assay: AlphaSeq yeast mating assay, pH 7 media
[2] = target: wild-type human IL-21R (human) (UniProt Q9HBE5); assay: AlphaSeq yeast mating assay, unbuffered media
[3] = target: wild-type human IL-21R (human) (UniProt Q9HBE5); assay: AlphaSeq yeast mating assay, pH 6 media
[4] = target: wild-type human IL-21R (human) (UniProt Q9HBE5); assay: AlphaSeq yeast mating assay, pH 5 media
[5] = target: human interleukin 21 receptor (IL-21R) (human) (UniProt Q9HBE5); assay: AlphaSeq yeast mating assay, pH 7 media
[6] = target: human interleukin 21 receptor (IL-21R) (human) (UniProt Q9HBE5); assay: AlphaSeq yeast mating assay, pH 5 media
[7] = target: human interleukin 21 receptor (IL-21R) (human) (UniProt Q9HBE5); assay: AlphaSeq yeast mating assay, unbuffered media
[8] = target: human interleukin 21 receptor (IL-21R) (human) (UniProt Q9HBE5); assay: AlphaSeq yeast mating assay, pH 6 media
[9] = target: mouse IL-21R on T cells of mouse splenocytes (mouse) (UniProt Q9JHX3); assay: cell-based or functional assay
[10] = target: mouse IL-21R, His-tagged (BLI antigen) (mouse) (UniProt Q9JHX3); assay: BLI
[11] = target: recombinant human IL-21R His tag (Acro Biosystems) (human) (UniProt Q9HBE5); assay: BLI
[12] = target: human IL-21R on T cells of primary human PBMCs (human) (UniProt Q9HBE5); assay: cell-based or functional assay

IL-21_A63T (from UniProt Q9HBE4 32-152) (ligand)
Kd [1]: 210 nM | Kd [2]: 3.3 µM | Kd [3]: 21 nM

IL-21_A87N (from UniProt Q9HBE4 32-152) (ligand)
Kd [1]: 120 nM | Kd [4]: 110 nM | Kd [3]: 25 nM

IL-21_E72H (from UniProt Q9HBE4 32-152) (ligand)
Kd [1]: 21 nM | Kd [2]: 3.4 µM | Kd [3]: 11 nM

IL-21_E93G (from UniProt Q9HBE4 32-152) (ligand)
Kd [1]: 150 nM | Kd [2]: 7.2 µM | Kd [3]: 37 nM

IL-21_F60I (from UniProt Q9HBE4 32-152) (ligand)
Kd [1]: 190 nM | Kd [4]: 340 nM | Kd [2]: 7.7 µM

IL-21_F60R (from UniProt Q9HBE4 32-152) (ligand)
Kd [1]: 27 nM | Kd [4]: 76 nM | Kd [3]: 26 nM

IL-21_F76M (from UniProt Q9HBE4 32-152) (ligand)
Kd [1]: 75 nM | Kd [4]: 77 nM | Kd [3]: 21 nM

IL-21_H35P (from UniProt Q9HBE4 32-152) (ligand)
Kd [5]: 59 nM | Kd [6]: 41 nM | Kd [7]: 560 nM

IL-21_H118I (from UniProt Q9HBE4 32-152) (ligand)
Kd [6]: 360 nM | Kd [7]: 150 nM

IL-21_H118K (from UniProt Q9HBE4 32-152) (ligand)
Kd [1]: 370 nM | Kd [4]: 99000 nM | Kd [3]: 3100 nM

IL-21_I96V (from UniProt Q9HBE4 32-152) (ligand)
Kd [1]: 62 nM | Kd [4]: 190 nM | Kd [2]: 3 µM

IL-21_K85S (from UniProt Q9HBE4 32-152) (ligand)
Kd [6]: 150 nM

IL-21_K106E (from UniProt Q9HBE4 32-152) (ligand)
Kd [5]: 550 nM | Kd [7]: 120 nM

IL-21_K106T (from UniProt Q9HBE4 32-152) (ligand)
Kd [6]: 200 nM | Kd [7]: 210 nM

IL-21_K131V (from UniProt Q9HBE4 32-152) (ligand)
Kd [6]: 26 nM

IL-21_L56M (from UniProt Q9HBE4 32-152) (ligand)
Kd [1]: 84 nM | Kd [4]: 350 nM | Kd [2]: 6.7 µM | Kd [3]: 45 nM

IL-21_L120Y (from UniProt Q9HBE4 32-152) (ligand)
Kd [5]: 58 nM

IL-21_N51E (from UniProt Q9HBE4 32-152) (ligand)
Kd [5]: 140 nM | Kd [6]: 20 nM | Kd [7]: 250 nM | Kd [8]: 11 nM

IL-21_N54H (from UniProt Q9HBE4 32-152) (ligand)
Kd [1]: 27 nM | Kd [4]: 77 nM | Kd [3]: 20 nM

IL-21_N54P (from UniProt Q9HBE4 32-152) (ligand)
Kd [1]: 27 nM | Kd [4]: 89 nM | Kd [2]: 5.4 µM | Kd [3]: 20 nM

IL-21_N97G (from UniProt Q9HBE4 32-152) (ligand)
Kd [1]: 48 nM | Kd [4]: 77 nM | Kd [2]: 7.6 µM | Kd [3]: 24 nM

IL-21_P62H (from UniProt Q9HBE4 32-152) (ligand)
Kd [1]: 110 nM | Kd [4]: 160 nM | Kd [2]: 5.1 µM | Kd [3]: 21 nM

IL-21_P62T (from UniProt Q9HBE4 32-152) (ligand)
Kd [1]: 46 nM | Kd [2]: 4.5 µM

IL-21_P107D (from UniProt Q9HBE4 32-152) (ligand)
Kd [6]: 60 nM | Kd [7]: 190 nM

IL-21_P108L (from UniProt Q9HBE4 32-152) (ligand)
Kd [1]: 99 nM | Kd [4]: 360 nM | Kd [2]: 8.1 µM | Kd [3]: 35 nM

IL-21_P133I (from UniProt Q9HBE4 32-152) (ligand)
Kd [1]: 110 nM | Kd [3]: 44 nM

IL-21_Q41S (from UniProt Q9HBE4 32-152) (ligand)
Kd [1]: 25 nM | Kd [4]: 140 nM | Kd [2]: 3 µM | Kd [3]: 26 nM

IL-21_Q48G (from UniProt Q9HBE4 32-152) (ligand)
Kd [1]: 39 nM | Kd [4]: 59 nM | Kd [2]: 3.2 µM | Kd [3]: 16 nM

IL-21_R34E (from UniProt Q9HBE4 32-152) (ligand)
Kd [1]: 210 nM

IL-21_R34L (from UniProt Q9HBE4 32-152) (ligand)
Kd [5]: 77 nM | Kd [6]: 100 nM | Kd [7]: 330 nM

IL-21_R34M (from UniProt Q9HBE4 32-152) (ligand)
Kd [6]: 150 nM | Kd [7]: 390 nM

IL-21_R34T (from UniProt Q9HBE4 32-152) (ligand)
Kd [5]: 140 nM | Kd [7]: 350 nM | Kd [8]: 26 nM

IL-21_R94S (from UniProt Q9HBE4 32-152) (ligand)
Kd [5]: 35 nM | Kd [6]: 140 nM | Kd [8]: 27 nM

IL-21_R94T (from UniProt Q9HBE4 32-152) (ligand)
Kd [5]: 80 nM | Kd [6]: 210 nM | Kd [8]: 27 nM

IL-21_R114F (from UniProt Q9HBE4 32-152) (ligand)
Kd [5]: 57 nM | Kd [6]: 140 nM | Kd [7]: 450 nM | Kd [8]: 48 nM

IL-21_R115I (from UniProt Q9HBE4 32-152) (ligand)
Kd [5]: 50 nM | Kd [6]: 140 nM | Kd [7]: 260 nM | Kd [8]: 35 nM

IL-21_R115P (from UniProt Q9HBE4 32-152) (ligand)
Kd [5]: 57 nM | Kd [7]: 55 nM | Kd [8]: 15 nM

IL-21_R115Q (from UniProt Q9HBE4 32-152) (ligand)
Kd [5]: 56 nM | Kd [8]: 11 nM

IL-21_S74A (from UniProt Q9HBE4 32-152) (ligand)
Kd [1]: 160 nM | Kd [4]: 140 nM | Kd [2]: 4.4 µM

IL-21_S77M (from UniProt Q9HBE4 32-152) (ligand)
Kd [5]: 60 nM | Kd [6]: 40 nM | Kd [8]: 15 nM

IL-21_S86I (from UniProt Q9HBE4 32-152) (ligand)
Kd [1]: 52 nM | Kd [4]: 110 nM

IL-21_S142D (from UniProt Q9HBE4 32-152) (ligand)
Kd [7]: 450 nM

IL-21_human_D33P Fc fusion protein (from UniProt Q9HBE4 30-162)
Mouse T cell EC50 (pM), pSTAT3 phosflow [9]: 1800 pM | Kd [10]: 19.8 nM

IL-21_human_D33T Fc fusion protein (from UniProt Q9HBE4 30-162)
Kd [10]: 37.4 nM | Kd [11]: 14.8 nM

IL-21_human_E72L Fc fusion protein (from UniProt Q9HBE4 30-162)
Kd [10]: 12.3 nM

IL-21_human_E72S Fc fusion protein (from UniProt Q9HBE4 30-162)
Mouse T cell EC50 (pM), pSTAT3 phosflow [9]: 47000 pM | Human T cell EC50 (pM), pSTAT3 phosflow [12]: 31 pM | Kd [10]: 7.75 nM

IL-21_human_I37G Fc fusion protein (from UniProt Q9HBE4 30-162)
Kd [10]: 159 nM

IL-21_human_I37R Fc fusion protein (from UniProt Q9HBE4 30-162)
Kd [10]: 35.1 nM

IL-21_human_I37V Fc fusion protein (from UniProt Q9HBE4 30-162)
Kd [10]: 5.27 nM | Kd [11]: 3.02 nM

IL-21_human_I43M Fc fusion protein (from UniProt Q9HBE4 30-162)
Kd [10]: 9.04 nM | Kd [11]: 7.02 nM

IL-21_human_I45A Fc fusion protein (from UniProt Q9HBE4 30-162)
Kd [10]: 12.6 nM | Kd [11]: 1.94 nM

IL-21_human_I45H Fc fusion protein (from UniProt Q9HBE4 30-162)
Kd [10]: 124 nM | Kd [11]: 29 nM

IL-21_human_I95H Fc fusion protein (from UniProt Q9HBE4 30-162)
Kd [10]: 849 nM | Kd [11]: 16 nM

IL-21_human_I148S Fc fusion protein (from UniProt Q9HBE4 30-162)
Kd [10]: 6.46 nM | Kd [11]: 2.45 nM

IL-21_human_K106S Fc fusion protein (from UniProt Q9HBE4 30-162)
Kd [10]: 24 nM | Kd [11]: 5.78 nM

IL-21_human_P108L Fc fusion protein (from UniProt Q9HBE4 30-162)
Mouse T cell EC50 (pM), pSTAT3 phosflow [9]: 71000 pM | Kd [10]: 11.8 nM | Kd [11]: 3.21 nM

IL-21_human_R34S Fc fusion protein (from UniProt Q9HBE4 30-162)
Mouse T cell EC50 (pM), pSTAT3 phosflow [9]: 8500 pM | Human T cell EC50 (pM), pSTAT3 phosflow [12]: 5.6 pM | Kd [10]: 28.7 nM | Kd [11]: 31.5 nM

IL-21_human_R38M Fc fusion protein (from UniProt Q9HBE4 30-162)
Kd [10]: 189 nM | Kd [11]: 87.9 nM

IL-21_human_R38Q Fc fusion protein (from UniProt Q9HBE4 30-162)
Kd [10]: 246 nM | Kd [11]: 89.6 nM

IL-21_human_R105K Fc fusion protein (from UniProt Q9HBE4 30-162)
Kd [10]: 41.3 nM | Kd [11]: 16.7 nM

IL-21_human_S74H Fc fusion protein (from UniProt Q9HBE4 30-162)
Mouse T cell EC50 (pM), pSTAT3 phosflow [9]: 1900 pM | Human T cell EC50 (pM), pSTAT3 phosflow [12]: 3.6 pM | Kd [11]: 12.3 nM

IL-21_human_W73L Fc fusion protein (from UniProt Q9HBE4 30-162)
Mouse T cell EC50 (pM), pSTAT3 phosflow [9]: 6900 pM | Kd [10]: 19.9 nM | Kd [11]: 22.8 nM

IL-21_human_Y52Q Fc fusion protein (from UniProt Q9HBE4 30-162)
Mouse T cell EC50 (pM), pSTAT3 phosflow [9]: 9200 pM | Human T cell EC50 (pM), pSTAT3 phosflow [12]: 8.7 pM | Kd [10]: 19.4 nM | Kd [11]: 14.4 nM
